Test results taken from patent publication US20060281702A1, “Combinatorial selection of phosphorothioate aptamers for RNases” (priority 2005, published 2006).
“Also recorded” adds a separate entry of the source. Where two headings read alike, the source gives them in different places.

Tests used:
[1] = test system: HIV-1 SF162 (R5) in U373-MAGI-CCR5 cells; test: HIV infection of ODN-transfected U373-MAGI-CCR5 cells; assay type: cell-based
Source text: Viruses and cells. HIV-1 SF162-R5 is a primary isolate that uses CCR5 as a coreceptor (R5), and was obtained from the NIH AIDS Research and Reference Reagent Program. U373-MAGI-CCR5 cells have modifications of the U373 astrocytoma adherent cells that allow use for HIV transfection and infection studies. U373-MAGI-CCR5 cells express β-gal under the control of HIV LTR, which is trans-activated by the HIV Tat protein in relation to the level of virus replication. In addition, these cells express CD4 and the human chemokine receptor CCR5 on its surface, which allow infection by primary HIV strains. U373 cells are propagated in 90% DMEM, 10% fetal bovine serum, 0.2 mg/ml G418, 0.1 mg/ml hydromycin B, and 1.0 μg/ml puromycin. For transfection and infection studies, U373 cells were maintained in 90% DMEM, 10% fetal bovine serum, and 1% penicillin/streptomycin. Thioaptamer RNase H-specific R12-2, control AP-1-specific or scrambled ODNs were transfected into the cells 24 hr prior to infection using Oligofectamine liposomes, according to the manufacturer's instructions (Invitrogen).
Infection of ODN-transfected U373-MAGI-CCR5 cells. Transfected cells and control cells were infected with HIV at m.o.i. of 0.003 (which consistently gives high levels of viral production) for 2 hr. Equal volumes of medium were then added and infection was continued for 48 hr. HIV replication was quantitated in cell lysates by measurement of β-gal activity, determined by luminometry using the β-Glo kit (Promega), according to the manufacturer's guidelines. β-gal activity is expressed as relative light units (RLU). To determine HIV TCID50 in U373-MAGI-CCR5 cells, serial dilutions (10×) of SF162-R5 virus supernatant were innoculated onto a 24-well plate containing 3×10^4 U373 cells for 2 hr, then equal volumes of complete medium were added, and infection was continued for 48 hr. Cells then were lysed and assayed for HIV-directed β-gal expression, and TCID50 (50% tissue culture infective dose) was calculated from quadruplicates. The p24 antigen capture assay (Beckman-Coulter) was used to determine virus production in some studies, measured by p24 antigen concentration in the culture supernatants harvested at day 7 post-infection.

[2] = biological target: T1, HIV-RT (Human immunodeficiency virus type 1 group M subtype B, UniProt P04585); test: EMSA binding to intact HIV-RT
T1 construct: The 66 kDa domain, p66, contains an RNase H domain in addition to the DNA polymerase domain; purchased Amersham Bioscience (Piscataway, N.J.)
Procedure: Electrophoresis Mobility Shift Assay (EMSA). One of the selected thioaptamers (R12-2) was used to test the specific binding to RNase H. R12-2 was labeled with fluorescein at the 5′-end by enzymatic synthesis and was incubated with increasing concentrations of HIV-RT RNase H in Tris-HCl buffer (50 mM. pH 8), MgCl2 (10 mM) and DTT (40 mM) at 37° C. for 30 minutes. The reaction mixture was loaded on an 8% native polyacrylamide gel, electrophoresed and analyzed on the Flor Chem 8800 imager (Alpha Innotech, CA). Similar experiment was performed with the E.coli RNase H, to test whether R12-2 binds to the RNase H from E.coli.
Next, the binding of R12-2 to the intact HIV-RT by EMSA methods was also determined. In FIG. 4a, the protein in the band was detected by staining the gel with Coomassie blue.

[3] = biological target: T2, RNase H activity of intact HIV-RT (Human immunodeficiency virus type 1 group M subtype B, UniProt P04585); test: HIV-RT RNase H activity assay (3H-labeled DNA:RNA hybrid); assay type: biochemical; details: intact HIV-RT 0.35 μM, R12-2 0.5-2 μM, FIG. 5
T2 construct: The 66 kDa domain, p66, contains an RNase H domain in addition to the DNA polymerase domain; purchased Amersham Bioscience (Piscataway, N.J.)
Procedure: HIV-RT RNase H activity assay. A DNA:RNA heteroduplex containing radiolabeled RNA was prepared as a substrate for the RNase H. A tritium-labeled RNA molecule, the stem loop 2 of the HIV psi-RNA (25), was made by in-vitro transcription using T7 RNA polymerase with a mixture of ATP, CTP, GTP and ^3H-UTP. Transcribed RNA was purified by centrifugation using Microcon YM-3 filters, to remove NTPs and other short RNA sequences. The purified RNA was annealed with the complementary DNA strand to give the DNA:RNA hybrid where the RNA strand is ^3H-labeled. HIV-RT (0.35 μM) was incubated with R12-2 thioaptamer (0.5-2 μM) in a buffer containing Tris-HCl (50 mM, pH 8.0), MgCl2 (6 mM), DTT (10 mM) and KCl (80 mM) for 30 min at 37° C. To this mixture, labeled DNA-RNA hybrid (40 000 cpm) was added to a final volume of 50 μl and incubated at 37° C. for 20 min. The reaction was quenched by addition of 150 μl of 10% trichloroacetic acid and the mixture was placed on ice for 10 min. The reaction mixture was filtered, washed and the amount of radioactivity in the filtrate was measured using a scintillation counter (Beckman Coulter, CA). The amount of radioactivity in the filtrate is regarded as proportional to RNase H activity.
The ability of the thioaptamer R12-2 to inhibit RNase H activity was tested using a radio-labeled substrate of a DNA:RNA hybrid duplex, as described in Methods. […]

[4] = biological target: T3, isolated RNase H domain (Human immunodeficiency virus type 1 group M subtype B, UniProt P04585); test: RNase H activity of the isolated RNase H domain; assay type: biochemical, HIV
T3 construct: encodes the 15 kDa RNase H domain of HIV-RT; made in house; host or cells: E. coli

[5] = biological target: T4, isolated domain of RNase H HIV-RT (Human immunodeficiency virus type 1 group M subtype B, UniProt P04585); test: NMR titration of R12-2 with isolated RNase H domain; assay type: binding, HIV-1; details: addition of RNase H to R12-2
T4 construct: encodes the 15 kDa RNase H domain of HIV-RT; made in house; host or cells: E. coli
Procedure: NMR Spectroscopy. Uniformly ^15N labeled RNase H and chemically synthesized R12-2 were used to monitor the binding of the R12-2 thioaptamer to the isolated domain of RNase H. The oligonucleotide concentrations were calculated from the absorbance value and using the molar absorption coefficients calculated using the nearest neighbor parameters. ^15N-HSQC spectra (26) of the isolated RNase H in the presence of 25 mM MgCl2 were acquired on Varian UnityPlus 750 MHz instrument equipped with pulse field gradients and using triple resonance probes. One dimensional proton NMR and 2D NOESY spectra (250 ms mixing time) of R12-2 thioaptamer in 95% H2O/5% D2O were collected at 750 MHz. The signals from the […] imino protons of R12-2, that are very sensitive to changes in the DNA conformation, were monitored during the titration of RNase H to the R12-2.

B1: R12-2: 62-mer duplex DNA thioaptamer, monothiophosphate 5′ to dA, selected against RNase H domain of HIV-RT; probably SEQ ID NOS. 1 and 2 (nucleic acid)
chain 1: AATGCTTCCACGAGCCTTTCGGGGTTGGTGTACAGTGGATGGCTGCGAGGCGGTAGTCTATTC
chain 2: GAATAGACTACCGCCTCGCAGCCATCCACTGTACACCAACCCCGAAAGGCTCGTGGAAGCAT
modifications: DNA, backbone and methylation of C not given here; duplex DNA thioaptamer, monothiophosphate 5' to dA
notes: 62-mer duplex DNA thioaptamer, monothiophosphate 5′ to dA, selected against RNase H domain of HIV-RT; 1 and 2
In the case of B1, the reduction of infection ([1]; Oligofectamine transfection 24 h prior to infection, HIV-SF162 m.o.i. 0.003, compared with untransfected or OF-only cells, FIG. 6) is reported as “greater than 75%”, the “inhibition of the virus at high m.o.i.” value ([1]; R12-2 0.05 μg/ml, inocula m.o.i. 0.05 to 0.0005, FIG. 8) is reported as “significant inhibition” and the “reduction of virus production” value ([1]; high m.o.i.) is reported as “more than 50%”. For the same molecule, the “suppression of virus compared with AZT” value ([1]; m.o.i.≦0.005, AZT 10 μM, FIG. 8) was “comparable to that seen with AZT”, the IC50 ([1]; transfected 24 hrs prior to infection with HIV SF162, 48 hrs, doses 0.03 to 2.0 μg/ml, FIG. 7, read-out: IC50 (inhibition of HIV infection)) was < 100 nM and the “effect on HIV infection / viral production” value ([1]; transfected U373-MAGI-CCR5 cells, FIG. 6) was “inhibits; also recorded: markedly reduces”. The “binding to intact HIV-RT (EMSA)” value ([2]; FIG. 4A) was “is binding”, the Kd ([2]; intact HIV-RT, EMSA bound band intensity, Hill Plot, FIG. 4B, read-out: dissociation constant Kd) was 70 nM and the Kd ([2]; specific binding to HIV-RT, read-out: binding constant) was 70 nM. The “inhibition of RNase H activity” value [3] was “inhibit; also recorded: shows inhibition”, the “effect against the isolated RNase H domain” value [4] was “not effective” and the “binding to isolated RNase H domain (NMR, imino proton signal broadening)” value [5] was “binding”.
